The results in this text go back to US20260217860A1 (BIOCYTOGEN PHARMACEUTICALS BEIJING, published 2026).

Sequences and labels used below:
T1: monkey (Macaca fascicularis) MUC1 on CHO-S-fasMUC1 cells (monkey (Macaca fascicularis))
T1 construct: CHO-S cells transfected with vectors expressing fasMUC1; also called monkey MUC1
T1 chain: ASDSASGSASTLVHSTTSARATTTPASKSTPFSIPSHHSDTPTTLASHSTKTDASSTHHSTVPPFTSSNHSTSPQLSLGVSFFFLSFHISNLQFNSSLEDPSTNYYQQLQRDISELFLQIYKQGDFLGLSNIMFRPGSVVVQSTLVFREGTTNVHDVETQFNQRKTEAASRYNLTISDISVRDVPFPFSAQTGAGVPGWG

T2: His-tagged monkey MUC1 (fasMUC1-His) (monkey, UniProt Q29435 181-380, limits assumed)
T2 construct: not shown: His tag
T2 chain: T1 chain

B1: E-9A6-M-11E8 (bispecific antibody)
heavy 1: not shown
heavy 2: QVQLVQSGGGVVQPGRSLRLSCAASGFTFSSYAMHWVRQAPGKGLEWVAVISDDGINKYYADSVKGRFTISRDNSKNTLYLQMNSLRAEDSAVYYCARALPTIFGVVMYFYYGLDVWGQGTTATVSSASTKGPSVFPLAPSSKSTSGGTAALGCLVKDYFPEPVTVSWNSGALTSGVHTFPAVLQSSGLYSLSSVVTVPSSSLGTQTYICNVNHKPSNTKVDKKVEPKSCDKTHTCPPCPAPELLGGPSVFLFPPKPKDTLMISRTPEVTCVVVDVSHEDPEVKFNWYVDGVEVHNAKTKPREEQYNSTYRVVSVLTVLHQDWLNGKEYKCKVSNKALPAPIEKTISKAKGQPREPQVCTLPPSREEMTKNQVSLSCAVKGFYPSDIAVEWESNGQPENNYKTTPPVLDSDGSFFLVSKLTVDKSRWQQGNVFSCSVMHEALHNHYTQKSLSLSPGK
light: not shown
notes: Knobs-into-holes bispecific with a common light chain; also called anti-EGFR/MUC1 bispecific antibody
B2: E-9F3-M-11E8 (bispecific antibody)
heavy 1: not shown
heavy 2: B1 heavy 2
light: not shown
notes: as for B1
B3: E-6C4-M-11E8 (bispecific antibody)
heavy 1: not shown
heavy 2: B1 heavy 2
light: not shown
notes: as for B1
B4: E-9H2-M-11E8 (bispecific antibody)
heavy 1: not shown
heavy 2: B1 heavy 2
light: not shown
notes: Knobs-into-holes bispecific with a common light chain; also called anti-EGFR/MUC1 bispecific antibody; E-9H2-M-llE8
B5: E-9D2-M-11E8 (bispecific antibody)
heavy 1: not shown
heavy 2: B1 heavy 2
light: not shown
notes: as for B1

The first test deals with T3, monkey EGFR on CHO-S-fasEGFR cells (monkey, UniProt P55245 25-645).
T3 construct: CHO-S cells transfected with vectors expressing fasEGFR
The test can be described thus: flow cytometry, transfected CHO-S cells, 5 ug/mL. (In flow cytometry, cells or beads pass a laser one at a time.)
Description: (§1) The anti-EGFR/MUC1 bispecific antibodies (5 μg/mL) were added to the 96-well plate, and incubated at 4° C. for 30 min. […] For the negative control (NC), only cells were added and no antibodies were added.
For B1, the “Percentage of Positive Cells (%)” value was found to be 23%.

Consider B2, for which the “Percentage of Positive Cells (%)” value came out at 20.5%.

For the molecule B3, the “Percentage of Positive Cells (%)” value turned out to be 18.3%.

As to B4, the “Percentage of Positive Cells (%)” value was 15.1%.

As to B5, the “Percentage of Positive Cells (%)” value stood at 16.8%.

Another test addresses T4, human EGFR on CHO-S-hEGFR cells (human, UniProt P00533 25-645).
T4 construct: CHO-S cells transfected with vectors expressing hEGFR
Description: flow cytometry, transfected CHO-S cells, 5 ug/mL.
Description: as §1
Regarding B1, the “Percentage of Positive Cells (%)” value is 63.3%.

For the molecule B2, the “Percentage of Positive Cells (%)” value was found to be 58.8%.

Take B3: the “Percentage of Positive Cells (%)” value was 48.1%.

As to B4, the “Percentage of Positive Cells (%)” value worked out at 49.3%.

Consider B5, for which the “Percentage of Positive Cells (%)” value was 50.1%.

The target of the next test is T1, monkey (Macaca fascicularis) MUC1 on …. The test can be described thus: flow cytometry, transfected CHO-S cells, 5 ug/mL.
Description: as §1
As to B1, the “Percentage of Positive Cells (%)” value was determined as 45.1%.

With B2, the “Percentage of Positive Cells (%)” value was found to be 45.5%.

B3: the “Percentage of Positive Cells (%)” value came out at 48.2%.

Consider B4, for which the “Percentage of Positive Cells (%)” value was 47%.

As for B5, the “Percentage of Positive Cells (%)” value came out at 47%.

Another test addresses T5, human MUC1 (484 amino acids) on CHO-S-hMUC1 (484AA) cells (human, UniProt P15941 24-1158).
T5 construct: CHO cells transfected with vectors expressing 484 amino acids of human MUC1
Description: flow cytometry, transfected CHO-S cells, 5 ug/mL.
Description: as §1
Consider B1, for which the “Percentage of Positive Cells (%)” value worked out at 93.5%.

Turning to B2, the “Percentage of Positive Cells (%)” value was determined as 94.2%.

Regarding B3, the “Percentage of Positive Cells (%)” value was determined as 94%.

On to B4, for which the “Percentage of Positive Cells (%)” value was found to be 94%.

In the case of B5, the “Percentage of Positive Cells (%)” value is 93.8%.

The target in a further test is T6, His-tagged monkey EGFR protein (fasEGFR-His, ACROBiosystems Inc., Cat #: EGR-C52H1) (monkey).
T6 construct: Bought protein
Description: SPR, Biacore 8K, 1:1 fit.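 Further: His-tagged targets captured on the chip at roughly 100 RU, antibody analytes flowed at 1 µg/mL in HBS-EP+ pH 7.4, 50 s association, 400 s dissociation.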
Description: (§2) Specifically, his-tagged proteins were diluted to 200 nM, with 1×HBS-EP+buffer (PH 7.4) and then injected into the Biacore™ 8K biosensor at 10 μL/min for about 50 seconds to achieve a desired protein density (e.g., about 100 response units (RU)). Purified antibodies at 1 μg/mL in 1× HBS-EP+buffer (PH 7.4) were then injected at 10 μL/min for 50 seconds.
(§3) Dissociation was monitored for 400 seconds. The chip was regenerated after the last injection of each titration with a glycine solution (pH 1.5) at 30 L/min for 30 seconds.
As to B1, the affinity, expressed as Kd, was 5.44 nM; the off-rate constant (koff) stood at 0.00116 s⁻¹; the on-rate (kon) was 213000 M⁻¹ s⁻¹.

In the case of B2, the Kd turned out to be 28.7 nM, the koff was found to be 0.00193 s⁻¹ and the kon was found to be 67100 M⁻¹ s⁻¹.

Take B3: the Kd is 79.3 nM, the koff stood at 0.0291 s⁻¹ and the kon amounted to 367000 M⁻¹ s⁻¹.

Regarding B4, the affinity, expressed as Kd, was 80.1 nM; the koff stood at 0.0173 s⁻¹; the kon is 215000 M⁻¹ s⁻¹.

Consider B5, for which the dissociation constant (Kd) came to 52.2 nM, the koff came out at 0.0248 s⁻¹ and the kon came to 476000 M⁻¹ s⁻¹.

In a further test the target is T7, His-tagged human MUC1 protein hMUC1(961-1152)-His (human, UniProt P15941 961-1152).
T7 construct: also called hMUC(961-1152)-His; not shown: His tag
The test can be described thus: SPR, Biacore 8K, 1:1 fit. (In general: In SPR one partner is held on a chip, and binding of the other changes the refractive index at the surface.)
B1: the Kd was 9.99 nM, the koff stood at 0.00218 s⁻¹ and the kon was 218000 M⁻¹ s⁻¹.

In turn, B2 came in with a Kd of 2.63 nM, a koff of 0.000881 s⁻¹ and a kon of 336000 M⁻¹ s⁻¹.

As to B3, binding was characterised by a dissociation constant (Kd) of 2.66 nM, the koff worked out at 0.00109 s⁻¹ and the kon was 410000 M⁻¹ s⁻¹.

In the case of B4, the Kd is 6.19 nM, the koff amounted to 0.000571 s⁻¹ and the kon stood at 92300 M⁻¹ s⁻¹.

As to B5, the Kd was 2.79 nM, the koff stood at 0.000543 s⁻¹ and the kon worked out at 195000 M⁻¹ s⁻¹.

In a further test the target is T2, His-tagged monkey MUC1 (fasMUC1-His). Description: SPR, Biacore 8K, 1:1 fit.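 Further: His-tagged targets captured on the chip at roughly 100 RU, antibody analytes flowed at 1 µg/mL in HBS-EP+ pH 7.4, 50 s association, 400 s dissociation.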
Description: as §2, §3
On to B1, for which binding was characterised by a dissociation constant (Kd) of 40.5 nM, the off-rate constant (koff) was determined as 0.0162 s⁻¹ and the kon turned out to be 401000 M⁻¹ s⁻¹.

Take B2: the Kd stood at 25.7 nM, the koff is 0.011 s⁻¹ and the kon is 426000 M⁻¹ s⁻¹.

In the case of B3, the Kd came to 25.7 nM, the koff was 0.0102 s⁻¹ and the kon was 398000 M⁻¹ s⁻¹.

For the molecule B4, the Kd was found to be 2.69 nM, the koff came out at 0.00105 s⁻¹ and the kon was determined as 389000 M⁻¹ s⁻¹.

Consider B5, for which the affinity, expressed as Kd, was 19.1 nM; the koff came to 0.00896 s⁻¹; the kon worked out at 470000 M⁻¹ s⁻¹.

Another test addresses T8, His-tagged human EGFR protein (hEGFR-His, ACROBiosystems Inc., Cat #: EGR-H5222) (human, UniProt P00533 25-645).
T8 construct: Bought protein; not shown: His tag
The test can be described thus: SPR, Biacore 8K, 1:1 fit.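 Further: His-tagged targets captured on the chip at roughly 100 RU, antibody analytes flowed at 1 µg/mL in HBS-EP+ pH 7.4, 50 s association, 400 s dissociation.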
Consider B1, for which the Kd was 5.54 nM, the off-rate constant (koff) amounted to 0.00101 s⁻¹ and the kon came to 183000 M⁻¹ s⁻¹.

As to B2, the Kd is 28.7 nM, the koff stood at 0.00203 s⁻¹ and the kon was determined as 70700 M⁻¹ s⁻¹.

For the molecule B3, the Kd turned out to be 91.8 nM, the koff was found to be 0.0264 s⁻¹ and the kon was determined as 287000 M⁻¹ s⁻¹.

B4 registered a Kd of 88.3 nM, an off-rate (koff) of 0.0157 s⁻¹ and an association rate constant (kon) of 178000 M⁻¹ s⁻¹.

B5 displayed a Kd of 59.5 nM, a koff of 0.02 s⁻¹ and a kon of 337000 M⁻¹ s⁻¹.

A word on the Kd: it is the concentration at which binding is half-saturated. What is called koff is the first-order rate constant of dissociation. The kon is the second-order rate constant of association.
